Reference: article PMC6036693, “An iterative computational design approach to increase the thermal endurance of a mesophilic enzyme” (Biotechnology for Biofuels, 2018)

Target: the molecule itself
Assay: crystal structure; PDC_(2.03) at 6 mg/mL in 20 mM Tris pH 7.5, 100 mM NaCl, 1 mM MgCl2, 0.5 mM DTT, 0.1 mM TPP; crystals grown in 0.1 M MES monohydrate pH 6.0, 2.4 M ammonium sulfate at 20 °C; two molecules in the asymmetric unit

B1: PDC_(2.03), computationally designed thermostable variant of Zymomonas mobilis pyruvate decarboxylase (enzyme)
chain: MDYTVGTYLAERLVQIGLKHHFAVAGDYNLVLLDNLLDNKNMEQVYCCNELNCGFSAEGYARAKGAAAAVVTYSVGALSAFDAIGGAYAENLPVILISGAPNNNDHAAAHVLHHALGKTDYHYQLEMAKNITAAAEAIYTPEEAPAKIDHVIKTALREKKPVYLEIACNIASMPCAAPGPASALFNDEASDEASLNAAVEETLKFIENRDKVAVLVGSKLRAAAAEEAAVKFADALGGAVATMAAAKSFFPEENPHYIGTSWGEVSYPGVEKTMKEADAVIALAPVFNDYSTTGWTDIPDPKKLVLAEPRSVVVNGIRFPSVHLKDYLTRLAEKVSKKTGALDFFKSLNAGELKKADPADPSAPLVNAEIARQIEDLLTPNTTVIAETGDSWFNAQRMKLPNGARVEYEMQWGHIGWSVPAAFGYAVGAPERRNILMVGDGSFQLTAQEVAQMVRLKLPVIIFLINNYGYTIEVMIHDGPYNNIKNWDYAALMEVFNGNGGYDSGAGKGLKAKTAAELEEAIKVALDNTDGPTLIECFIAREDCTEELVKWGERVAAANSRKPVNKLL
notes: the wild-type structures 2WVA and 2WVG served as design template and search model; Crystallised with thiamine pyrophosphate (TPP) and Mg2+; the asymmetric unit of 5TMA holds two molecules; also called variant 2.03; source: E. coli BL21 (DE3), purified (HisPur Cobalt column, Superdex 200 size-exclusion chromatography)
B1: binds.
